Measurements: the supplement of paper PMC10724198
± gives the standard deviation of the averaged measurements.

Tested on: Saccharomyces cerevisiae
Test: protein stability index of tFT-peptide fusion (C-terminal peptide) (PSI (0-1 scale)); higher = more stable (slower turnover)
Settings: genetic background: wild type; temperature: 30 C
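Further: PSI is a weighted mean of sequencing reads over stability bins, variants kept only with over 10 reads, mCherry proximal and sfGFP distal, peptide attached via GGGS linker.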

Sequence | protein stability index
VFFLHGLVIYED | 0.563 ± 0.069
AGAGGRAMSDTS | 0.693 ± 0.0087
KEERGINNKKGK | 0.691 ± 0.071
CEYPWGTVVRDG | 0.709 ± 0.045
LSLFLPFRFFRS | 0.699 ± 0.025
SASWARRSLPIW | 0.729 ± 0.045
LPSPRPSPSRVP | 0.676 ± 0.038
FLLDRSSADHSL | 0.684 ± 0.1
NECKIKKDNTKK | 0.672 ± 0.06
SAPPPSPAPSPY | 0.677 ± 0.023
SRRAPPPLYLPL | 0.699 ± 0.067
VKQGCISSNCKL | 0.762 ± 0.16
VWVFGLGLGRVV | 0.691 ± 0.032
KKKKKKKNKKRK | 0.683 ± 0.019
HLSNSCLHGVSG | 0.6484 ± 0.00096
EVGGSVGTIVGS | 0.702 ± 0.11
DSSDIELSTRTL | 0.651 ± 0.027
HDQKVPRERRTR | 0.699 ± 0.025
IAVHLSVSSRSW | 0.616 ± 0.035
AASGCGRPGCSA | 0.663 ± 0.059
TPLLAALRPTTS | 0.764 ± 0.07
GVVVRSCLMGFT | 0.619 ± 0.022
VTGSGVGGSPEC | 0.683 ± 0.042
QFIPIRSIIMRG | 0.73 ± 0.038
PPPPSRLPYNPF | 0.662 ± 0.023
VREFRRAVFVGS | 0.544 ± 0.02

Sequence | protein stability index
RLSFAWGGLLVV | 0.523 ± 0.0057
ASLAACSLTNSV | 0.697 ± 0.053
EYEDNRLDQHKV | 0.725 ± 0.04
PPPPRPPRDPPR | 0.6629 ± 0.00098
VVGGAGRRYVEG | 0.702 ± 0.036
TKHRFPKYRYLG | 0.5868 ± 0.0011
SVGGGRWRYGGR | 0.662 ± 0.04
PPPPPTFPVLTS | 0.603 ± 0.046
GQVGDRVVSVGL | 0.694 ± 0.028
KLGRIWNFTLSA | 0.6284 ± 0.001
VVGVLRVRSGEN | 0.606 ± 0.03
PHFLLLEDRPQT | 0.705 ± 0.02
PPRASPRMPAGC | 0.71506 ± 3.7e-05
LSLFLAWSLFFL | 0.487 ± 0.083
QWLGRDLKSREL | 0.691 ± 0.064
CLARPVFFSFIG | 0.559 ± 0.029
VVGRWRVCNVGL | 0.626 ± 0.05
GRYCDKRLGIVG | 0.699 ± 0.011
LSSWTYTRFLHG | 0.749 ± 0.085
HAIPAPDLYHTQ | 0.651 ± 0.09
HDRRKAFHVVWL | 0.663 ± 0.039
PPPPPPPSPLAP | 0.707 ± 0.015
HPPLPRPPPVPH | 0.683 ± 0.019
PSFLPLWFSRLR | 0.731 ± 0.093
KKKMINEKKKKD | 0.701 ± 0.025
PPLPPHPPPGQQ | 0.697 ± 0.017

Sequence | protein stability index
GFLGCGSGCGGG | 0.777 ± 0.1
PLPPRPSPPPPL | 0.705 ± 0.013
VDLGAGVCSAVC | 0.6195 ± 0.0056
AHGAGCGGRRVA | 0.726 ± 0.023
PRPPPATRPGPP | 0.688 ± 0.017
ASFHPIAPVSTP | 0.6862 ± 0.0011
LDAMNTSWYVKM | 0.676 ± 0.025
CRSCFGGGVRFV | 0.743 ± 0.076
CFSPAAPLLLPG | 0.689 ± 0.025
SGKVNNKEGKWK | 0.686 ± 0.015
FTLRFGYISDLD | 0.736 ± 0.21
QSNPAERASSRL | 0.692 ± 0.022
RHSLPSPPAFCL | 0.723 ± 0.0092
WLVPLDYKEGVV | 0.687 ± 0.035
AELSPGLSVLLL | 0.705 ± 0.013
TFPPLLFVCSLL | 0.594 ± 0.0078
PRVCSLLPSGSF | 0.711 ± 0.014
PCLASHTVDSLP | 0.665 ± 0.013
SSRPPPVLTPAR | 0.745 ± 0.044
SLGWGRVNVCGV | 0.666 ± 0.0031
FVPFVLFLLRPL | 0.582 ± 0.022
FRGSVRLIGFAQ | 0.666 ± 0.0081
IDSCFKEVAYGK | 0.625 ± 0.014
CRFYKYIRNMFR | 0.674 ± 0.074
CACYILHGRSNP | 0.684 ± 0.081
DQRCRLQGRYQR | 0.733 ± 0.12

Sequence | protein stability index
PSPPPAPAPLLA | 0.667 ± 0.032
PLLPYPFPPPLS | 0.784 ± 0.04
VAVRARRWASGP | 0.727 ± 0.055
VQKITRLVDKVV | 0.813 ± 0.065
GPVTDWPLLLFK | 0.5901 ± 0.0015
RTPQLSVFDLGI | 0.7957 ± 0.0039
SPSFDLLFSPFD | 0.778 ± 0.01
PLPFPPPPPSPY | 0.655 ± 0.086
YDMFCSYRFYPI | 0.636 ± 0.07
APVLPKPSPFSF | 0.629 ± 0.01
PGWPISNLGHAL | 0.634 ± 0.077
RLRTVQNLQIVV | 0.658 ± 0.028
VARADLVVTFRI | 0.703 ± 0.073
QSIESKKIKQKE | 0.7109 ± 0.0048
AGAGVQAYGRGR | 0.681 ± 0.015
YIDLLTRVCIRR | 0.6921 ± 0.0024
FESTCSGLLYNS | 0.694 ± 0.039
SQLEPNNVQVTT | 0.68 ± 0.0069
MWLGSGCWVNGL | 0.735 ± 0.048
SGTSDDWWPGVA | 0.785 ± 0.038
IIVGFFGLLLGL | 0.5413 ± 0.0048
DNMKLILNGYNL | 0.658 ± 0.03
GGCVSRPLGRCV | 0.648 ± 0.088
